# Results taken from US20170313754A1 (PROTAGONIST THERAPEUTICS, published 2017).
# Numbered stars: 1 amine (or outer) side, 2 acyl side, 3 side chain; on linkers, the order of the positions; unused ones are H or OH. Bridge positions count the residues as written; N and C are the ends. Square brackets hold non-standard residues; d marks the D form. Primed or numbered codes have the meaning given here. Side chains are listed from the residue outwards. Ends that are not written are not given here. * marks the point of attachment. PEG3″ = NH2CH2CH2(OCH2CH2)3CH2CH2CO2H (PEG3 linker), NCCOCCOCCOCCCCC(=O)*; Ida = iminodiacetic acid, O=C(CN(CC(=O)[*:3])[*:1])[*:2]; γGlu = O=C(O)[C@H](CCC(=O)[*:2])N[*:1]; Palmitoyl = CCCCCCCCCCCCCCCC(=O)*; dapa = diaminopropionic acid; Lauroyl = CCCCCCCCCCCC(=O)*; Decanoyl = CCCCCCCCCC(=O)*; Isovaleryl = CC(C)CC(=O)*; Octanoyl = CCCCCCCC(=O)*; Dap = NC[C@H](N)C(=O)O; Hexanoyl = CCCCCC(=O)*; Butyryl = CCCC(=O)*
# T1: human ferroportin (SLC40A1) fused in frame with GFP, stably expressed in HEK293 cells (human, UniProt Q9NP59 1-571)
# T1 sequence (looked up): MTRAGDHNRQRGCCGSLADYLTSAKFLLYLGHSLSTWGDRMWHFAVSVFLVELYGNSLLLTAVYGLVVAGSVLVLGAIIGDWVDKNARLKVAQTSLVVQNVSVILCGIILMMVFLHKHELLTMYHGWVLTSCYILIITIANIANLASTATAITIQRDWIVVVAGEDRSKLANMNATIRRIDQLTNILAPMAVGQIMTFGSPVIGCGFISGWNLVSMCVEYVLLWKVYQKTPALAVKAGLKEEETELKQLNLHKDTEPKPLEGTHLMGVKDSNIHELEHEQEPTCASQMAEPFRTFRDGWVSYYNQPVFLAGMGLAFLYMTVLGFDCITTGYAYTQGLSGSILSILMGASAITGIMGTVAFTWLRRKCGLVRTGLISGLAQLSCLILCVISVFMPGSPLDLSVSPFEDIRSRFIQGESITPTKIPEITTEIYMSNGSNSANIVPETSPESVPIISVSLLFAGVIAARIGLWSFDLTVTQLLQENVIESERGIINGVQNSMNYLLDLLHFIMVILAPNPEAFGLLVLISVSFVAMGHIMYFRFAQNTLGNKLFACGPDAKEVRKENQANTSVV
# Target: T1, human ferroportin (SLC40A1) fused in …
# Experiment: cell-based or functional assay
row,Binder,"Potency EC50 (nM), ferroportin-GFP internalization/degradation"
1,Isovaleryl-DTHFPCIKFEPK([Dap-Palmitoyl])SKGCK-NH2 (not fully specified (bridges); cysteine pairing not given here) [Isovaleric acid-DTHFPCIKFEP-K(dapa-Palm)-SKGCK-NH2],10 nM
2,Isovaleryl-DTHFPCIKFEPRSKGCK([Dap-Palmitoyl])K-NH2 (disulfide 6-16 (inferred)) [Isovaleric acid-DTHFPCIKFEPRSKGC-K(dapa-Palm)-K-NH2],10 nM
3,Isovaleryl-DTHFPCIKAGPRSKGWVCK-NH2 (not fully specified (bridges); cysteine pairing not given here) [Isovaleric acid-DTHFPCIKAGPRSKGWVCK-NH2],50 nM
4,[Ida]THFPCIKFEPRSKGWVCK(Butyryl)-NH2 (disulfide 6-18 (inferred)) [[Ida]-THFPCIKFEPRSKGWVC-K(butyric acid)-NH2],355 nM
5,DTHFPCIKFKPRSKGWVC (N-terminal isovaleric acid; K(decanoic acid) at Lys 10; C-terminal amide) [Isovaleric acid-DTHFPCIKF-K(decanoic acid)-PRSKGWVC-NH2],22 nM
6,[Ida]THFPCIKFEPRSKGWVCK(Hexanoyl)-NH2 (disulfide 6-18 (inferred)) [[Ida]-THFPCIKFEPRSKGWVC-K(hexanoic acid)-NH2],191 nM
7,DTHFPCIKFKPRSKGWVC (not fully specified; N-terminal isovaleric acid; K(mysteric acid) at Lys 10; C-terminal amide) [Isovaleric acid-DTHFPCIKF-K(mysteric acid)-PRSKGWVC-NH2],7 nM
8,[Ida]THFPCIKFEPRSKGWVCK(Lauroyl)-NH2 (disulfide 6-18 (inferred)) [[Ida]-THFPCIKFEPRSKGWVC-K(lauric acid)-NH2],52 nM
9,DTHFPCIKFKPRSKGWECK (N-terminal isovaleric acid; K(isoGlu-Palm) at Lys 10; C-terminal amide) [Isovaleric acid-DTHFPCIKFK(isoGlu-Palm)-PRSKGWECK-NH2],6 nM
10,DTHFPCIKFKPRSKGWVC (N-terminal isovaleric acid; K(butyric acid) at Lys 10; C-terminal amide) [Isovaleric acid-DTHFPCIKF-K(butyric acid)-PRSKGWVC-NH2],37 nM
11,DTHFPCIKFEPRSKGCKK (N-terminal isovaleric acid; K(isoglu-Palm) at Lys 18; C-terminal amide) [Isovaleric acid-DTHFPCIKFEPRSKGCK-K(isoglu-Palm)-NH2],4 nM
12,DTHFPCIKFKPRSKGWVC (not fully specified; N-terminal isovaleric acid; K(lauric acid) at Lys 10; C-terminal amide) [Isovaleric acid-DTHFPCIKF-K(lauric acid)-PRSKGWVC-NH2],10 nM
13,[Ida]THFPCIKFEPRSKGWVCK(Decanoyl)-NH2 (disulfide 6-18 (inferred)) [[Ida]-THFPCIKFEPRSKGWVC-K(decanoic acid)-NH2],116 nM
14,Isovaleryl-DTHFPCIKFEPRSKKWVCK-NH2 (disulfide 6-18 (inferred)) [Isovaleric acid-DTHFPCIKFEPRSKKWVCK-NH2],15 nM
15,Isovaleryl-DTHAPCIKFGPRSKGWVCK-NH2 (not fully specified (bridges); cysteine pairing not given here) [Isovaleric acid-DTHAPCIKFGPRSKGWVCK-NH2],> 500 nM
16,Isovaleryl-ATHFPCIKFGPRSKGWVCK-NH2 (disulfide 6-18 (inferred)) [Isovaleric acid-ATHFPCIKFGPRSKGWVCK-NH2],60 nM

# Continued, values first:
row,"Potency EC50 (nM), ferroportin-GFP internalization/degradation",Binder
1,480 nM,"{4,4‑5,5‑6,6,6‑heptafluorohexanoic acid}-DTHFPCIKFGPRSKGWVCK-NH2 (disulfide 6-18 (inferred)) [4,4-5,5-6,6,6-Heptafluorohexanoic acid-DTHFPCIKFGPRSKGWVCK-NH2]"
2,> 1000 nM,Palmitoyl-DTHFPCIKFGPRSKGWVCK-NH2 (disulfide 6-18 (inferred)) [Palm-DTHFPCIKFGPRSKGWVCK-NH2]
3,> 10000 nM,Isovaleryl-DTHAPCIKFEPRSKGWECK-NH2 (not fully specified (bridges); cysteine pairing not given here) [Isovaleric acid-DTHAPCIKFEPRSKGWECK-NH2]
4,5 nM,Isovaleryl-DTHFPCIKFEPK([γGlu-Palmitoyl])SKGCK-NH2 (not fully specified (bridges); cysteine pairing not given here) [Isovaleric acid-DTHFPCIKFEP-K(isoglu-Palm)-SKGCK-NH2]
5,21 nM,DTHFPCIKFKPRSKGWVC (N-terminal isovaleric acid; K(hexanoic acid) at Lys 10; C-terminal amide) [Isovaleric acid-DTHFPCIKF-K(hexanoic acid)-PRSKGWVC-NH2]
6,29 nM,DTHFPCIKFKPRSKGWVC (N-terminal isovaleric acid; K(Ac) at Lys 10; C-terminal amide) [Isovaleric acid-DTHFPCIKF-K(Ac)-PRSKGWVC-NH2]
7,> 1000 nM,H-DTHFPCIKFGPRSKGWVCK-NH2 (disulfide 6-18 (inferred)) [Hy-DTHFPCIKFGPRSKGWVCK-NH2]
8,129 nM,[Ida]THFPCIKFEPRSKGWVCK(Octanoyl)-NH2 (not fully specified (bridges); cysteine pairing not given here) [[Ida]-THFPCIKFEPRSKGWVC-K(octanoic acid)-NH2]
9,4 nM,Isovaleryl-DTHFPCIKFEPRSKK([γGlu-Palmitoyl])CK-NH2 (disulfide 6-16 (inferred)) [Isovaleric acid-DTHFPCIKFEPRSK-K(isoglu-Palm)-CK-NH2]
10,> 1000 nM,{Palmitoyl-PEG3″}-DTHFPCIKFGPRSKGWVCK-NH2 (disulfide 6-18 (inferred)) [Palm-PEG3-DTHFPCIKFGPRSKGWVCK-NH2]
11,30 nM,DTHFPCIKFKPRSKGWVC (not fully specified; N-terminal isovaleric acid; K(octanoic acid) at Lys 10; C-terminal amide) [Isovaleric acid-DTHFPCIKF-K(octanoic acid)-PRSKGWVC-NH2]
12,8 nM,Isovaleryl-DTHFPCIKFEPK([γGlu-Palmitoyl])SKGWECK-NH2 (not fully specified (bridges); cysteine pairing not given here) [Isovaleric acid-DTHFPCIKFEPK(isoGlu-Palm)-SKGWECK-NH2]
13,17 nM,Isovaleryl-DTHFPCIK([dapa-Palmitoyl])FEPRSKGCK-NH2 (not fully specified (bridges); cysteine pairing not given here) [Isovaleric acid-DTHFPCI-K(dapa-Palm)-FEPRSKGCK-NH2]
14,7 nM,Isovaleryl-DTHFPCIKFEPRSK([Dap-Palmitoyl])GCK-NH2 (not fully specified (bridges); cysteine pairing not given here) [Isovaleric acid-DTHFPCIKFEPRS-K(dapa-Palm)-GCK-NH2]
15,20 nM,[Ida]THFPCIKFEPRSKGWVCK(mysteric acid)-NH2 (disulfide 6-18 (inferred)) [Ida-THFPCIKFEPRSKGWVC-K(mysteric acid)-NH2]
